# Literature values in PMC6679882.
# Target: IL-18BP (Homo sapiens) (UniProt O95998)
# Sequence (O95998 31-194): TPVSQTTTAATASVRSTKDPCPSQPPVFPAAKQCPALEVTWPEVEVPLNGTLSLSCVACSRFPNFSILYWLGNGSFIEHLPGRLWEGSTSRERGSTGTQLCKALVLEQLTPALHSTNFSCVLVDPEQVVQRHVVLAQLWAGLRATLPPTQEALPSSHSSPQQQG
# Sequence of IL-18 (Q14116 37-193): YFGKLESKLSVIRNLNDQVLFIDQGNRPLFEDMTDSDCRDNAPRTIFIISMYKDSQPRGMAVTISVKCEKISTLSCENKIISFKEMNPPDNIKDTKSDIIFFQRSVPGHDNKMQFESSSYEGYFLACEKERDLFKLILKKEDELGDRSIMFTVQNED
substance,measurement,value
IL-18 (from UniProt Q14116),Kd,0.4 nM
